21 molecules from patent US20190248902A1 (published 2019) can be followed below.

Substitutions are numbered along the chain they refer to.

The labels stand for the following.
T1: recombinant, soluble human ASGR-1 (human, UniProt P07306 62-291)
T1 construct: biotinylated in the binning assay; also called soluble huASGR-1; Soluble ASGR-1 (Amgen)
T1 sequence: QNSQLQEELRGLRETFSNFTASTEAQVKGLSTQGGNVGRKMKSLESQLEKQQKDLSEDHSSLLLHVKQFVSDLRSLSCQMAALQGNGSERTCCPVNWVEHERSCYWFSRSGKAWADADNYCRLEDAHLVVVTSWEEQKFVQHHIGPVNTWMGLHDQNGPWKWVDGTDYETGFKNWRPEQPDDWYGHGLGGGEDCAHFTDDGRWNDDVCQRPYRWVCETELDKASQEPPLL

B1: 154F4 (antibody, V domains shown)
VH: QVQLVESGGGVVQPGRSLRLSCAASGFTFSSYGMHWVRQAPGKGLEWVAVIWYDGSNKYYADSVKGRFTISRDNSKNTLYLQMNSLRAEDTAVYYCAREDSYCSGTSCPYYYYYGMDVWGQGTTVTVSS
VL: SYELTQPPSVSVSPGQTASITCSGDKLGNKYVCWYQQKPGQSPVEVIYKDSKRPSGIPERFSGSNSGNTGTLTISGTQAMDEADYYCQAWDNSTLVFGGGTKLTVL
notes: hybridoma mAb
B2: 159H8 (antibody, V domains shown)
VH: B1 VH with S31T, E99D, D100R, S101V, Y102S, G105S
VL: SYELTQPPSVSVSPGQTASITCSGDKLGDKYVCWYQQKPGQSPVLVIYQDRKRPSGIPERFSGSNSGNTATLTISGTQALDEADYYCQAWGNSSFVVFGGGTKLTVL
notes: hybridoma mAb
B3: 160B12 (antibody, V domains shown)
VH: B1 VH with E99D, D100R, S101V, Y102S, G105S
VL: B2 VL with Y2D, P7S, R51S
notes: hybridoma mAb
B4: 27E7 (antibody, V domains shown)
VH: B1 VH with G105S
VL: B1 VL with V32A, K49Q, S55L, G70A, N92S, L95V
notes: hybridoma mAb
B5: 22G5 (antibody, V domains shown)
VH: EVQLLESGGGLVQPGGSLRLSCAASGFTFSSYAMNWVRQAPGMGLEWVSVISRSGGYTYYADSVKGRFTISRDNSKNTLYLQMNSLRAEDTAVYYCASRLAVAGSEAFDIWGQGTLVTVSS
VL: DIQMTQSPSSLSASVGDRVTITCRASQNISSYLNWYQQKQGKAPKLLIYAASSLQNGVPSRFSGRGSGTDFTLTISSLQPEDFATYYCQQSYRTPLFTFGPGTKVDFK
notes: hybridoma mAb
B6: 148E10 (antibody, V domains shown)
VH: QVQLVESGGGVVQPGRSLRLSCAASGFTFSSYGMHWVRQAPGKGLEWVAVIWFDGSNKYYVDSVKDRFTISRDNSKNTLYLQMNSLRAEDTAVYYCARDRVEGSGTPYYYYGMDVWGQGTTVTVSS
VL: SYELTQPPSVSVSPGQTASITCSGDKLGNKYVCWYQQRPGHAAVLIIYQDSKRPSGIPERFSGSNSGNTATLTISGTQAMDEADYFCQAWDRNTYVVFGGGTKLTVL
notes: hybridoma mAb
B7: 175D10 (antibody, V domains shown)
VH: QVQLVQSGAEVKKPGASVKVSCKASGYTFTNYDLNWVRQATGQGLEWMGWMHPNSGNTGYAQKFQGRVTMTRNTSISTVYMELSSLRSEDTAVYYCAYSSGWYYFDYWGQGTLVTVSS
VL: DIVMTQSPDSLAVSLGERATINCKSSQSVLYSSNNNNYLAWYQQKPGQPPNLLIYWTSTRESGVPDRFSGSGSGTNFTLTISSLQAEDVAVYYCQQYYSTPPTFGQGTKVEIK
notes: hybridoma mAb
B8: 177D2 (antibody, V domains shown)
VH: QVQLVESGGGVVQPGRSLRLSCAASGFTFSSYGMDWVRQAPGKGLEWVAIIWFDGSNKYYADSVKGRFTISRDNSKNTLYLQMNSLRAEDTAVYYCARAYCGGDCYFPHLHYYGMDVWGQGTTVTVSS
VL: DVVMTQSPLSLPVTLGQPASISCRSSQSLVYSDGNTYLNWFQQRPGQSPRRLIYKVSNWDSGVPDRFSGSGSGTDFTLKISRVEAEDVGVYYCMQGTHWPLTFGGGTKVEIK
notes: hybridoma mAb
B9: 64E2 (antibody, V domains shown)
VH: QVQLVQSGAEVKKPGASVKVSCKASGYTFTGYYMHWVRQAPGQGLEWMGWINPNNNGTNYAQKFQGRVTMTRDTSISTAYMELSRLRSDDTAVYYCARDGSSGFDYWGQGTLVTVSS
VL: DIQMTQSPSSVSASVGDRVTITCRASQGISRWLAWYQQKPGKAPKLLIYAASSLQSGVPSRFSGSGSGTDFTLTISSLQPEDFATYYCQQANSFPFTFGPGTKVDIK
notes: hybridoma mAb
B10: 52G11 (antibody, V domains shown)
VH: QVQLVQSGAEVKKPGASVKVSCKASGYTFTGYYLHWVRQAPGQGLEWMGWINPNRNGTNYAQKFQGRVTMTRDTSISTAFMELSRLRSDDTAVYYCARDGTSSFDYWGQGTLVTVSS
VL: B9 VL with R31K, I48L, G64A, I106V
notes: hybridoma mAb
B11: 4H6 (antibody, V domains shown)
VH: B10 VH with G31D, N52H, R55S, N56G, F80Y, E82G, R85S
VL: B9 VL with A50G, T85I
notes: hybridoma mAb
B12: 53F2 (antibody, V domains shown)
VH: B10 VH with K63N, F80Y, R87K
VL: B9 VL with R31K, K45N, I48L, R61K, I106V
notes: hybridoma mAb
B13: 53F7 (antibody, V domains shown)
VH: B10 VH with Y33H, L34M, R55N, F80Y, S84N, R87T
VL: B9 VL with T5S, K45N, T85I
notes: hybridoma mAb
B14: 70D1 (antibody, V domains shown)
VH: B10 VH with Y33H, L34M, R55S, G57A, F80Y, G100S, T101I, F104W
VL: B9 VL with I29V, L73V
notes: hybridoma mAb
B15: 55B1 (antibody, V domains shown)
VH: B10 VH with L34F, N52H, R55N, G57A, F80Y, R98K, T101R
VL: B9 VL with G28V, K45N, I106L
notes: hybridoma mAb
B16: 49F10 (antibody, V domains shown)
VH: B10 VH with Y33H, L34M, R55N, G57A, K63N, M70L, F80Y, Y106F
VL: B9 VL with L46V, S53T
notes: hybridoma mAb
B17: 50D4 (antibody, V domains shown)
VH: B10 VH with Y33H, L34M, R55N, G57A, K63S, M70L, F80Y, Y106F
VL: B9 VL with V19L, L46V, S53T, K107R
notes: hybridoma mAb
B18: 10G6 (antibody, V domains shown)
VH: B10 VH with G31A, Y33H, L34M, R55N, F80Y, A97G, G100V
VL: B9 VL with R31K, L46I, S52Y, S60A, S76R
notes: hybridoma mAb
B19: 56E5 (antibody, V domains shown)
VH: B10 VH with K23Q, Y33H, L34M, R55N, G57A, F80Y, S84R, Y95H
VL: B9 VL with S30R, R31K
notes: hybridoma mAb
B20: 57A7 (antibody, V domains shown)
VH: B10 VH with Y33H, L34I, G44D, R55N, F80Y, T101R, S103G
VL: B9 VL with K45N, S53N
notes: hybridoma mAb
B21: 51E9 (antibody, V domains shown)
VH: B10 VH with G26R, Y33H, L34I, R55T, N59Q, F80Y
VL: B9 VL with R31S, A50V, S76R, N92K
notes: hybridoma mAb

The target of one test is T1, recombinant, soluble human ASGR-1. In words: Octet BLI dissociation, pH 5.6 plus calcium. Here is the method:
(§1) The relative dissociation of ASGR-1 from antibodies was measured using a label-free assay on an OctetHTX instrument (Fortebio). Antibody samples were captured on anti-HuFc kinetic biosensors (ForteBio cat #18-5064) at 5 ug/mL in assay buffer (10 mM Tris, 0.1% Triton, 150 mM NaCl, 1 mg/mL BSA, 1 mM CaCl2, pH7.4) for three minutes. A one minute baseline stabilization step was performed in assay buffer. Soluble ASGR-1 (Amgen) at 6 ug/ml in assay buffer was added and association to the antibodies was monitored for two minutes. Subsequent dissociation of ASGR-1 from the antibodies was performed by incubating the ASGR-1-mAb complexes for 10 minutes under each of the following conditions:
(§2) The binding signal at the end of the 2 minute association phase for each dissociation experiment was set to 100% and used to represent the maximal level of ASGR-1 binding. After 1 minute of dissociation, the percentage of ASGR-1 remaining bound was calculated. The lower the percent remaining at a given time point indicates increased levels of dissociation in response to the test conditions (ie. different pH and/or calcium concentrations). The change in the percentage of ASGR-1 remaining bound in response to each test condition relative to the percent remaining in the control conditions (ie. pH 7.4+calcium) was determined. Cut-offs for an antibody to be categorized as being sensitive to a particular condition were set to >10% (ie. if >10% of the ASGR-1 dissociates from the antibody under a particular test condition compared to control condition, it was deemed sensitive to that condition). The analysis was done using the 1 minute dissociation time point (except for mAb 149A1 which was binned based on the 4 minute dissociation time point). Using this analysis, the ASGR-1-binding, receptor-ligand blocking antibodies were separated into groups according to their dissociation profiles in response to pH and calcium (Table 7.3). Antibodies belonging to each category were observed.
With B1, the “% Change Compared to pH 7.4 + Calcium” value worked out at 41%.
On the same count and under the same terms, to B2 belongs 10%; to B3, 8%.
For B4, the “% Change Compared to pH 7.4 + Calcium” value came out at 35%.
On the same count and under the same terms, under B5 stands 35%.
With B6, the “% Change Compared to pH 7.4 + Calcium” value stood at 19%.
Still for that read-out and setting: to B7 belongs -3%.
Still for that read-out and setting: to B8 belongs 2%; to B9, 29%; to B10, 1%.
Turning to B11, the “% Change Compared to pH 7.4 + Calcium” value was -1%.
In the case of B12, the “% Change Compared to pH 7.4 + Calcium” value came to 1%.
The same measure, in the same setting: under B13 stands 3%; under B14, 12%.
Turning to B15, the “% Change Compared to pH 7.4 + Calcium” value is -2%.
For B16, the “% Change Compared to pH 7.4 + Calcium” value was -2%.
For the molecule B17, the “% Change Compared to pH 7.4 + Calcium” value is 0%.
With B18, the “% Change Compared to pH 7.4 + Calcium” value is 4%.
The same measure, in the same setting: under B19 stands -6%; under B20, 13%; under B21, -5%.

Another test has the same target. Description: Octet BLI dissociation, pH 5.6 minus calcium. How it is done: as §1, §2
(Biolayer interferometry detects binding as a change in optical thickness at a sensor tip.)
As for B1, the “% Change Compared to pH 7.4 + Calcium” value came out at 67%.
Still for that read-out and setting: under B2 stands 26%; under B3, 22%.
Same read-out and setting: under B4 stands 46%; under B6, 33%.
Take B7: the “% Change Compared to pH 7.4 + Calcium” value was 2%.
On the same count and under the same terms, under B8 stands 10%; under B9, 49%; under B10, 13%.
As to B11, the “% Change Compared to pH 7.4 + Calcium” value is 2%.
On the same count and under the same terms, to B12 belongs 13%.
On the same count and under the same terms, to B13 belongs 13%; to B14, 29%.
Still for that read-out and setting: to B15 belongs 4%; to B16, 8%.
Regarding B17, the “% Change Compared to pH 7.4 + Calcium” value was found to be 9%.
On the same count and under the same terms, to B18 belongs 15%.
B19: the “% Change Compared to pH 7.4 + Calcium” value was -1%.
For B20, the “% Change Compared to pH 7.4 + Calcium” value amounted to 29%.
Same read-out and setting: under B21 stands 2%.

For the next test the target is unchanged. In words: Octet BLI dissociation, pH 7.4 minus calcium. How it is done: as §1, §2
In the case of B1, the “% Change Compared to pH 7.4 + Calcium” value came out at 10%.
On the same count and under the same terms, under B2 stands 6%; under B3, 6%.
The same measure, in the same setting: to B4 belongs 20%.
On the same count and under the same terms, to B5 belongs 40%.
With B6, the “% Change Compared to pH 7.4 + Calcium” value turned out to be 7%.
The same measure, in the same setting: under B7 stands 4%; under B8, 3%.
As for B9, the “% Change Compared to pH 7.4 + Calcium” value amounted to 48%.
On the same count and under the same terms, to B10 belongs 15%.
For the molecule B11, the “% Change Compared to pH 7.4 + Calcium” value is 5%.
Same read-out and setting: under B12 stands 15%; under B13, 9%; under B14, 17%.
Regarding B15, the “% Change Compared to pH 7.4 + Calcium” value amounted to 5%.
Take B16: the “% Change Compared to pH 7.4 + Calcium” value was found to be 4%.
Same read-out and setting: to B17 belongs 6%; to B18, 7%.
On the same count and under the same terms, under B19 stands 1%; under B20, 13%.
Same read-out and setting: to B21 belongs 3%.
